Consider eleven molecules from article PMC3035606, “Structural Basis of Response Regulator Dephosphorylation by Rap Phosphatases” (PLoS Biology, 2011).

B6: RapH (enzyme, B. subtilis)
chain: GSMSQAIPSSRVGVKINEWYKMIRQFSVPDAEILKAEVEQDIQQMEEDQDLLIYYSLMCFRHQLMLDYLEPGKTYGNRPTVTELLETIETPQKKLTGLLKYYSLFFRGMYEFDQKEYVEAIGYYREAEKELPFVSDDIEKAEFHFKVAEAYYHMKQTHVSMYHILQALDIYQNHPLYSIRTIQSLFVIAGNYDDFKHYDKALPHLEAALELAMDIQNDRFIAISLLNIANSYDRSGDDQMAVEHFQKAAKVSREKVPDLLPKVLFGLSWTLCKAGQTQKAFQFIEEGLDHITARSHKFYKELFLFLQAVYKETVDERKIHDLLSYFEKKNLHAYIEACARSAAAVFESSCHFEQAAAFYRKVLKAQEDILKGECLYAY
notes: two heterologous N-terminal residues (Gly-Ser) derived from the thrombin cleavage signal; RapH, B. subtilis strain 168, residues 1-376 (MW theor 44.1 kDa); Dimer in the crystal and in solution; also called RapHA; RapHB; source: E. coli BL21, purified (glutathione resin, thrombin, Source 15Q, Superdex 200; dialysis instead of gel filtration for the phosphatase and phosphotransfer assays); not …

Where two headings read alike, the source gives them in different places.

Series [1] has as its target T1, Spo0F~P (radiolabeled phosphorylated Spo0F-His) (B. subtilis) (UniProt P06628).
T1 sequence (chain, phosphoaspartate-54 (32P)): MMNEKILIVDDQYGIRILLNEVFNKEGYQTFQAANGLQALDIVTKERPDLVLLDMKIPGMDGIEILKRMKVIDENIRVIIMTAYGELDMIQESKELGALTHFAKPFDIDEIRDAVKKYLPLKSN

Series [2] addresses T1, Spo0F~P (radiolabeled phosphorylated Spo0F-His) (B. subtilis). The source holds these as a separate data set.
Series [3] concerns the molecule itself. The series is described as follows: crystal structure; vapor diffusion at 20°C; 7.5 mg/ml RapH and 3.5 mg/ml Spo0F in 20 mM Tris-HCl (pH 8.0), 100 mM KCl, 2.5 mM DTT, 5 mM MgCl2; well 20% PEG 3350, 200 mM lithium sulphate, 100 mM Bis-Tris (pH 6.0); refined to 2.20 Å.
The target in series [4] is B6. The series is described as above. The note with it: both partners purified.
Series [5] has as its target B6. The series is described as follows: crystal structure; crystals of native RapH with selenomethionyl Spo0F(D54E), as the native crystals but Bis-Tris at pH 5.8; SAD phasing, initial model at 2.70 Å; isomorphous to the native crystals. Conditions: both partners purified.
Series [6] addresses T1, Spo0F~P (radiolabeled phosphorylated Spo0F-His) (B. subtilis). The source holds these as a separate data set.
Series [7] has as its target T2, RapJ (B. subtilis), O34327.
T2 chain: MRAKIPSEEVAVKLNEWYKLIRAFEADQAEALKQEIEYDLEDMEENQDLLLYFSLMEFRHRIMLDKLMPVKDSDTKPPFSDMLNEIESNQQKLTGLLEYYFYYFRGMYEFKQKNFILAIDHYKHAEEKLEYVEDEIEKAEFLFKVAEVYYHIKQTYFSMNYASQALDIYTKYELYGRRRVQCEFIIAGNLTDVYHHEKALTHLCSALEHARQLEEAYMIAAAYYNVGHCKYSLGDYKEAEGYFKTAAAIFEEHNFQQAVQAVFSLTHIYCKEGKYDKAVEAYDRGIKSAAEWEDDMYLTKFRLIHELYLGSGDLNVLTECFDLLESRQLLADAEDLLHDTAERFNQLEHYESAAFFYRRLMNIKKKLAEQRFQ
As to the kind of experiment: SEC; size exclusion chromatography with gel filtration standards; experimental against theoretical molecular weight. Conditions: remark: other sources report otherwise.

B1: RapH-E137A (enzyme)
chain: GSMSQAIPSSRVGVKINEWYKMIRQFSVPDAEILKAEVEQDIQQMEEDQDLLIYYSLMCFRHQLMLDYLEPGKTYGNRPTVTELLETIETPQKKLTGLLKYYSLFFRGMYEFDQKEYVEAIGYYREAEKELPFVSDDIAKAEFHFKVAEAYYHMKQTHVSMYHILQALDIYQNHPLYSIRTIQSLFVIAGNYDDFKHYDKALPHLEAALELAMDIQNDRFIAISLLNIANSYDRSGDDQMAVEHFQKAAKVSREKVPDLLPKVLFGLSWTLCKAGQTQKAFQFIEEGLDHITARSHKFYKELFLFLQAVYKETVDERKIHDLLSYFEKKNLHAYIEACARSAAAVFESSCHFEQAAAFYRKVLKAQEDILKGECLYAY
Molecule B1 gave a Spo0F~P remaining after 40 min, in vitro phosphatase assay (wild-type control 7%) (% of Spo0F~P remaining) in series [1] of 15.

B2: RapH-F58A (enzyme)
chain: GSMSQAIPSSRVGVKINEWYKMIRQFSVPDAEILKAEVEQDIQQMEEDQDLLIYYSLMCARHQLMLDYLEPGKTYGNRPTVTELLETIETPQKKLTGLLKYYSLFFRGMYEFDQKEYVEAIGYYREAEKELPFVSDDIEKAEFHFKVAEAYYHMKQTHVSMYHILQALDIYQNHPLYSIRTIQSLFVIAGNYDDFKHYDKALPHLEAALELAMDIQNDRFIAISLLNIANSYDRSGDDQMAVEHFQKAAKVSREKVPDLLPKVLFGLSWTLCKAGQTQKAFQFIEEGLDHITARSHKFYKELFLFLQAVYKETVDERKIHDLLSYFEKKNLHAYIEACARSAAAVFESSCHFEQAAAFYRKVLKAQEDILKGECLYAY
B2 yielded a Spo0F~P remaining after 30 min, in vitro phosphatase assay (wild-type control 3%) (% of Spo0F~P remaining) in series [2] of 28.

B3: RapH-Y175A (enzyme)
chain: GSMSQAIPSSRVGVKINEWYKMIRQFSVPDAEILKAEVEQDIQQMEEDQDLLIYYSLMCFRHQLMLDYLEPGKTYGNRPTVTELLETIETPQKKLTGLLKYYSLFFRGMYEFDQKEYVEAIGYYREAEKELPFVSDDIEKAEFHFKVAEAYYHMKQTHVSMYHILQALDIYQNHPLASIRTIQSLFVIAGNYDDFKHYDKALPHLEAALELAMDIQNDRFIAISLLNIANSYDRSGDDQMAVEHFQKAAKVSREKVPDLLPKVLFGLSWTLCKAGQTQKAFQFIEEGLDHITARSHKFYKELFLFLQAVYKETVDERKIHDLLSYFEKKNLHAYIEACARSAAAVFESSCHFEQAAAFYRKVLKAQEDILKGECLYAY
On to B3, for which the Spo0F~P remaining after 30 min, in vitro phosphatase assay (wild-type control 3%) (% of Spo0F~P remaining) in series [1] is 54.

B4: RapH-D134A (enzyme)
chain: GSMSQAIPSSRVGVKINEWYKMIRQFSVPDAEILKAEVEQDIQQMEEDQDLLIYYSLMCFRHQLMLDYLEPGKTYGNRPTVTELLETIETPQKKLTGLLKYYSLFFRGMYEFDQKEYVEAIGYYREAEKELPFVSADIEKAEFHFKVAEAYYHMKQTHVSMYHILQALDIYQNHPLYSIRTIQSLFVIAGNYDDFKHYDKALPHLEAALELAMDIQNDRFIAISLLNIANSYDRSGDDQMAVEHFQKAAKVSREKVPDLLPKVLFGLSWTLCKAGQTQKAFQFIEEGLDHITARSHKFYKELFLFLQAVYKETVDERKIHDLLSYFEKKNLHAYIEACARSAAAVFESSCHFEQAAAFYRKVLKAQEDILKGECLYAY
In the case of B4, the Spo0F~P remaining after 30 min, in vitro phosphatase assay (wild-type control 3%) (% of Spo0F~P remaining) in series [1] came out at 13.

B5: RapH-L50A (enzyme)
chain: GSMSQAIPSSRVGVKINEWYKMIRQFSVPDAEILKAEVEQDIQQMEEDQDLAIYYSLMCFRHQLMLDYLEPGKTYGNRPTVTELLETIETPQKKLTGLLKYYSLFFRGMYEFDQKEYVEAIGYYREAEKELPFVSDDIEKAEFHFKVAEAYYHMKQTHVSMYHILQALDIYQNHPLYSIRTIQSLFVIAGNYDDFKHYDKALPHLEAALELAMDIQNDRFIAISLLNIANSYDRSGDDQMAVEHFQKAAKVSREKVPDLLPKVLFGLSWTLCKAGQTQKAFQFIEEGLDHITARSHKFYKELFLFLQAVYKETVDERKIHDLLSYFEKKNLHAYIEACARSAAAVFESSCHFEQAAAFYRKVLKAQEDILKGECLYAY
For B5, the Spo0F~P remaining after 30 min, in vitro phosphatase assay (wild-type control 13%) (% of Spo0F~P remaining) in series [2] is 26.

What is called stoichiometry N is a count of units in the complex or per binding partner. As to B6, the “stoichiometry N” value in series [3] stood at 2.

B7: Spo0F (natural protein, B. subtilis)
chain: GSMMNEKILIVDDQYGIRILLNEVFNKEGYQTFQAANGLQALDIVTKERPDLVLLDMKIPGMDGIEILKRMKVIDENIRVIIMTAYGELDMIQESKELGALTHFAKPFDIDEIRDAVKKYLPLKSN
notes: two heterologous N-terminal residues (Gly-Ser) derived from the thrombin cleavage signal; Spo0F, B. subtilis strain 168, residues 1-124; The methods name the vector pETDuet-1 but purify over glutathione resin and remove a GST tag; also called Spo0FA; Spo0FB; source: E. coli BL21(DE3), purified (glutathione resin, thrombin, Source 15Q and HiTrap Heparin flow-through, Superdex 200); …
B7: in series [4], the binding result is “binds”.

B8: selenomethionyl Spo0F-D54E (natural protein, B. subtilis)
chain: GSMMNEKILIVDDQYGIRILLNEVFNKEGYQTFQAANGLQALDIVTKERPDLVLLEMKIPGMDGIEILKRMKVIDENIRVIIMTAYGELDMIQESKELGALTHFAKPFDIDEIRDAVKKYLPLKSN
modifications: selenomethionyl (selenomethionine derivatized)
notes: two heterologous N-terminal residues (Gly-Ser) derived from the thrombin cleavage signal; purified in an identical manner to Spo0F; Spo0F, B. subtilis strain 168, residues 1-124, with D54E; Used for SAD phasing; PDB 3Q15 holds the parent (wild-type Spo0F); source: E. coli BL21(DE3), purified as Spo0F (buffer D with 120 mM MgCl2); not shown: GST, N-terminal, cleaved
On to B8, for which, in series [5], the binding result is on record as “binds”.

B9: RapF-H50L (enzyme)
chain: MTGVISSSSIGEKINEWYMYIRRFSIPDAEYLRREIKQELDQMEEDQDLLLYYSLMEFRHNLMLEYLEPLEKMRIEEQPRLSDLLLEIDKKQARLTGLLEYYFNFFRGMYELDQREYLSAIKFFKKAESKLIFVKDRIEKAEFFFKMSESYYYMKQTYFSMDYARQAYEIYKEHEAYNIRLLQCHSLFATNFLDLKQYEDAISHFQKAYSMAEAEKQPQLMGRTLYNIGLCKNSQSQYEDAIPYFKRAIAVFEESNILPSLPQAYFLITQIHYKLGKIDKAHEYHSKGMAYSQKAGDVIYLSEFEFLKSLYLSGPDEEAIQGFFDFLESKMLYADLEDFAIDVAKYYHERKNFQKASAYFLKVEQVRQLIQGGVSLYEIEV
Consider B9, for which the Spo0F~P remaining after 30 min, in vitro phosphatase assay (26 uM RapF); RapF-H50L dephosphorylates Spo0F (% of Spo0F~P remaining) in series [6] was determined as 16.

B10: RapF (natural protein)
chain: MTGVISSSSIGEKINEWYMYIRRFSIPDAEYLRREIKQELDQMEEDQDLHLYYSLMEFRHNLMLEYLEPLEKMRIEEQPRLSDLLLEIDKKQARLTGLLEYYFNFFRGMYELDQREYLSAIKFFKKAESKLIFVKDRIEKAEFFFKMSESYYYMKQTYFSMDYARQAYEIYKEHEAYNIRLLQCHSLFATNFLDLKQYEDAISHFQKAYSMAEAEKQPQLMGRTLYNIGLCKNSQSQYEDAIPYFKRAIAVFEESNILPSLPQAYFLITQIHYKLGKIDKAHEYHSKGMAYSQKAGDVIYLSEFEFLKSLYLSGPDEEAIQGFFDFLESKMLYADLEDFAIDVAKYYHERKNFQKASAYFLKVEQVRQLIQGGVSLYEIEV
On to B10, for which the Spo0F~P remaining after 30 min, in vitro phosphatase assay (26 uM RapF); wild-type RapF does not dephosphorylate Spo0F (% of Spo0F~P remaining) in series [6] amounted to 54.

B11: RapJ, O34327 1-373 (enzyme)
chain: MRAKIPSEEVAVKLNEWYKLIRAFEADQAEALKQEIEYDLEDMEENQDLLLYFSLMEFRHRIMLDKLMPVKDSDTKPPFSDMLNEIESNQQKLTGLLEYYFYYFRGMYEFKQKNFILAIDHYKHAEEKLEYVEDEIEKAEFLFKVAEVYYHIKQTYFSMNYASQALDIYTKYELYGRRRVQCEFIIAGNLTDVYHHEKALTHLCSALEHARQLEEAYMIAAAYYNVGHCKYSLGDYKEAEGYFKTAAAIFEEHNFQQAVQAVFSLTHIYCKEGKYDKAVEAYDRGIKSAAEWEDDMYLTKFRLIHELYLGSGDLNVLTECFDLLESRQLLADAEDLLHDTAERFNQLEHYESAAFFYRRLMNIKKKLAEQRFQ
B11 yielded a stoichiometry N in series [7] of 2.
